The values that follow come from paper PMC4332253 (The Journal of Cell Biology, 2015).

B1: Cdc15 F-BAR (aa 19–312) (domain or fragment, S. pombe, UniProt Q09822 19-312, looked up)
chain: SVKFRDNFWGSEDAGMDALMSRTKSSLSVLESIDEFYAKRASIEREYASKLQELAASSADIPEVGSTLNNILSMRTETGSMAKAHEEVSQQINTELRNKIREYIDQTEQQKVVAANAIEELYQKKTALEIDLSEKKDAYEYSCNKLNSYMRQTKKMTGRELDKYNLKIRQAALAVKKMDAEYRETNELLLTVTREWIDRWTEVCDAFQHIEEYRLEFLKTNMWAYANIISTACVKDDESCEKIRLTLENTNIDEDITQMIQNEGTGTTIPPLPEFNDYFKENGLNYDIDQLISK

For the experiment “Cdc15 F-BAR (aa 19–312)”, the target named is B1. Description: pull-down.
A further experiment addresses T1, MBP-Cdc12 (aa 1–764) (S. pombe, UniProt Q10059 1-764).
T1 sequence (looked up): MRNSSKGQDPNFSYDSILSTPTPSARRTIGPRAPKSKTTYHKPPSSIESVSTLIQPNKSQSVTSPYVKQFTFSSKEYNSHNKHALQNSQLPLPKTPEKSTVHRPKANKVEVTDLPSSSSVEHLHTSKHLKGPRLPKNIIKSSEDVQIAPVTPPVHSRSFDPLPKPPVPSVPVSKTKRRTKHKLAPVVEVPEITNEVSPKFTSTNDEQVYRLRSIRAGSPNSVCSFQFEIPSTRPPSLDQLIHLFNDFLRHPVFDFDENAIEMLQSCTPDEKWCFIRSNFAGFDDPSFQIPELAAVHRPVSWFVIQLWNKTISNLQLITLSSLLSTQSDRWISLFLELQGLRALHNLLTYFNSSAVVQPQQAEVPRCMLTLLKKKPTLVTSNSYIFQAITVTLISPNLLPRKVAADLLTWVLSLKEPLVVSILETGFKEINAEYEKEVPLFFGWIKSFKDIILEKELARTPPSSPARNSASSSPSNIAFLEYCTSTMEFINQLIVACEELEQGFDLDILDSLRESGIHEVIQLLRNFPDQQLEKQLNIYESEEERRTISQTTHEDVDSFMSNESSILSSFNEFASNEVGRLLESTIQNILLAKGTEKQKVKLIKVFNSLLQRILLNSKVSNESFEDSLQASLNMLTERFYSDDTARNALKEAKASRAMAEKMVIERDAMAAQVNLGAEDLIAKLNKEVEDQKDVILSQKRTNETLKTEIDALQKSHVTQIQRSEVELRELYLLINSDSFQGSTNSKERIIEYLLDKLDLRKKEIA
Description: pull-down.

Ends that are not written are not given here.

In general, Kd refers to the concentration at which binding is half-saturated. High values mean lower affinity, low ones higher affinity. Consider TPTPSARRTIGPRAPKSKTTY (peptide, UniProt Q10059 20-40, looked up, also: biotinylated, position not given here) [Cdc12 (aa 20–40) synthetic peptide], for which the dissociation constant Kd in the experiment with Cdc15 F-BAR (aa 19–312) amounted to 1.1 nM.

Take B1: the binding result with MBP-Cdc12 (aa 1–764) is on record as “binds”.
